Data published in the RNAGym collection of RNA variant scans (doi:10.1101/gr.219683.116).

B1: mRNA-splicing (parent)
chain: AGUUGCUGCUGGGAGCUCCAGCACAGUGAAAUGGACAGAAGGGCAGAGCAA

Variants of: B1
Assay: exon inclusion enrichment index; higher = more inclusion; WT1 exon 5 minigene, HEK293

| Variant | exon inclusion enrichment index |
| --- | --- |
| G5C C6A U7C G8A U10A G15U C16U | 0.0659 |
| G5C C6A U7C G8A U10A G15U C16G | 0.018 |
| G5C C6A U7C G8A U10A G15U C16A | 0.0461 |
| G5C C6A U7C G8A U10A G21U C22G | 0.113 |
| G5C C6A U7C G8A U10A G21U C22A | 0.0315 |
| G5C C6A U7C G8A U10A G21U C22U | 0.011 |
| G5C C6A U7C G8A U10A G13A A14U | 0.645 |
| G5C C6A U7C G8A U10A G13A A14G | 0.424 |
| G5C C6A U7C G8A U10A G13A A14C | 0.899 |
| G5C C6A U7C G8A U10A G12C G13A | 0.181 |
| G5C C6A U7C G8A U10A G12C G13U | 0.0133 |
| G5C C6A U7C G8A U10A G12C G13C | 0.0502 |
| G5C C6A U7C G8A U10A C19G A20U | 0.0711 |
| G5C C6A U7C G8A U10A G28A A29U | 0.0236 |
| G5C C6A U7C G8A U10A G28A A29C | 0.0469 |
| G5C C6A U7C G8A U10A G28A A29G | 0.0244 |
| G5C C6A U7C G8A U10A G38C A39C | 0.136 |
| G5C C6A U7C G8A U10A G11A | 0.832 |
| G5C C6A U7C G8A U10A G11C | 0.99 |
| G5C C6A U7C G8A U10A G11U | 0.955 |
| G5C C6A U7C G8A U10A G34A A35G | 0.0257 |

| Variant | exon inclusion enrichment index |
| --- | --- |
| G5C C6A U7C G8A U10A G34A A35U | 0.0204 |
| G5C C6A U7C G8A U10A G34A A35C | 0.0814 |
| G5C C6A U7C G8A U10A G12C | 0.365 |
| G5C C6A U7C G8A U10A G12A | 0.208 |
| G5C C6A U7C G8A U10A G12U | 0.0134 |
| G5C C6A U7C G8A U10A G12A G13U | 0.016 |
| G5C C6A U7C G8A U10A G12A G13C | 0.0982 |
| G5C C6A U7C G8A U10A G12A G13A | 0.114 |
| G5C C6A U7C G8A U10A G38A | 0.0452 |
| G5C C6A U7C G8A U10A G38C | 0.0648 |
| G5C C6A U7C G8A U10A G21C | 0.0715 |
| G5C C6A U7C G8A U10A G21A | 0.0465 |
| G5C C6A U7C G8A U10A G21U | 0.0631 |
| G5C C6A U7C G8A U10A G13C | 0.0242 |
| G5C C6A U7C G8A U10A G13A | 0.277 |
| G5C C6A U7C G8A U10A G13U | 0.00463 |
| G5C C6A U7C G8A U10A C36A A37U | 0.0382 |
| G5C C6A U7C G8A U10A C36A A37G | 0.0468 |
| G5C C6A U7C G8A U10A C36A A37C | 0.146 |
| G5C C6A U7C G8A U10A G33A G34U | 0.00646 |
| G5C C6A U7C G8A U10A G33A G34C | 0.0321 |

| Variant | exon inclusion enrichment index |
| --- | --- |
| G5C C6A U7C G8A U10A G33A G34A | 0.00429 |
| G5C C6A U7C G8A U10A C44U A45U | 0.0623 |
| G5C C6A U7C G8A U10A C44U A45G | 0.0445 |
| G5C C6A U7C G8A U10A C44U A45C | 0.252 |
| G5C C6A U7C G8A U10A G15A C16A | 0.00997 |
| G5C C6A U7C G8A U10A G15A C16U | 0.0227 |
| G5C C6A U7C G8A U10A G15A C16G | 0.0227 |
| G5C C6A U7C G8A U10A C36G A37C | 0.0273 |
| G5C C6A U7C G8A U10A C36G A37G | 0.00352 |
| G5C C6A U7C G8A U10A C36G A37U | 0.0414 |
| G5C C6A U7C G8A U10A G26A U27G | 0.258 |
| G5C C6A U7C G8A U10A G26A U27C | 0.555 |
| G5C C6A U7C G8A U10A G26A U27A | 0.131 |
| G5C C6A U7C G8A U10A G33C G34C | 0.0275 |
| G5C C6A U7C G8A U10A G33C G34U | 0.0659 |
| G5C C6A U7C G8A U10A G33C G34A | 0.0324 |
| G5C C6A U7C G8A U10A C24G A25G | 0.034 |
| G5C C6A U7C G8A U10A C24G A25C | 0.71 |
| G5C C6A U7C G8A U10A C24G A25U | 0.184 |
| G5C C6A U7C G8A U10A C22A | 0.0834 |
| G5C C6A U7C G8A U10A C22G | 0.197 |

| Variant | exon inclusion enrichment index |
| --- | --- |
| G5C C6A U7C G8A U10A C22U | 0.0831 |
| G5C C6A U7C G8A U10A G34U A35G | 0.0186 |
| G5C C6A U7C G8A U10A G34U A35C | 0.0109 |
| G5C C6A U7C G8A U10A G34U A35U | 0.00489 |
| G5C C6A U7C G8A U10A G33U | 0.0519 |
| G5C C6A U7C G8A U10A G33C | 0.162 |
| G5C C6A U7C G8A U10A G33A | 0.00667 |
| G5C C6A U7C G8A U10A G11C G12A | 0.0929 |
| G5C C6A U7C G8A U10A G11C G12U | 0.0425 |
| G5C C6A U7C G8A U10A G11C G12C | 0.382 |
| G5C C6A U7C G8A U10A C36U A37G | 0.111 |
| G5C C6A U7C G8A U10A C36U A37C | 0.0938 |
| G5C C6A U7C G8A U10A C36U A37U | 0.0725 |
| G5C C6A U7C G8A U10A C24U A25G | 0.334 |
| G5C C6A U7C G8A U10A C24U A25C | 0.98 |
| G5C C6A U7C G8A U10A C24U A25U | 0.151 |
| G5C C6A U7C G8A U10A G13C A14U | 0.136 |
| G5C C6A U7C G8A U10A G13C A14G | 0.278 |
| G5C C6A U7C G8A U10A G13C A14C | 0.145 |
| G5C C6A U7C G8A U10A G21A C22U | 0.0694 |
